Data on one substance can be found in paper PMC9278865.

For this test, the target named is wt ACE2_(615)-Fc (M27) (human) (UniProt Q9BYF1). Description: SPR. On the technique in general: Surface plasmon resonance follows binding to a sensor surface in real time, without labels.
Chain of wt ACE2_(615)-Fc (M27) (human) (Q9BYF1 18-615): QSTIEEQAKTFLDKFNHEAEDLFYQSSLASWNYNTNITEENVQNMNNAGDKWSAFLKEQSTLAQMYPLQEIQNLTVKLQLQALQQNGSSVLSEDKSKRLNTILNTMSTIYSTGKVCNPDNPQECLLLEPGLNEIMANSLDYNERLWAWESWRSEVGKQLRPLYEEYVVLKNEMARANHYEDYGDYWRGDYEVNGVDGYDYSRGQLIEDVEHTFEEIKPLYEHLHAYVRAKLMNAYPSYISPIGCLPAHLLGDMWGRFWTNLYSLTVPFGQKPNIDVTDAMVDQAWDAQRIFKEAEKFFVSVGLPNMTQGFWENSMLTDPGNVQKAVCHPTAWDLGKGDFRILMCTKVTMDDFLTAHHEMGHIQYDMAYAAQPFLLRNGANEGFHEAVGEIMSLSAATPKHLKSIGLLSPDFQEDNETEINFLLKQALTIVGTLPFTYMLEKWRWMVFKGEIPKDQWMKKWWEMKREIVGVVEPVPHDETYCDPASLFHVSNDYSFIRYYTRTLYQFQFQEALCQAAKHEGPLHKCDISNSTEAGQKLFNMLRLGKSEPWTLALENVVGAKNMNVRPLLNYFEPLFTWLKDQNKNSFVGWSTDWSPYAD

For the substance “SARS-CoV RBD (residues 306 to 577) (domain or fragment)”, the fold lower affinity than RBDwt on M27 turned out to be 5 fold.
